The target in experiment [1] is T1, NRP1-b1b2 (273-586) protein (UniProt O14786 273-586).
T1 construct: range 273-586; Prepared according to Appleton et al. 2007; Biotinylated (Sulfo-NHS-LC-biotin) for the yeast display FACS; unlabelled in ELISA and SPR; also called neuropilin-1 b1b2 protein; biotinylated NRP1-b1b2
The experiment can be described thus: SPR; lower end tied to Fc-TPP8 by Table 5 (65.8). The procedure:
(§1) Specifically, each of NRP1 and NRP2 b1b2 proteins was diluted in 10 mM Na-acetate buffer (pH 4.0), and immobilized on a CM5 sensor chip (GE healthcare, USA) at about 1000 response units (RU). […] After binding and dissociation analysis, regeneration of the CM5 chip was performed by flushing buffer (20 mM NaOH, 1M NaCl, pH10.0) at a flow rate of 30 μl/min for 1 minute.

The target of experiment [2] is T1, NRP1-b1b2 (273-586) protein. The experiment can be described thus: SPR; KD on NRP2-b1b2 divided by KD on NRP1-b1b2. The procedure: as §1
Experiment [3] has the same target. The experiment can be described thus: SPR (Biacore 2000), NRP1-b1b2 immobilised on CM5 chip. The procedure: as §1
Experiment [4] concerns the target T2, NRP2-b1b2 (275-595) protein (UniProt O60462 275-595).
T2 construct: range 275-595; also called neuropilin-2 b1b2 protein
T2 sequence (looked up): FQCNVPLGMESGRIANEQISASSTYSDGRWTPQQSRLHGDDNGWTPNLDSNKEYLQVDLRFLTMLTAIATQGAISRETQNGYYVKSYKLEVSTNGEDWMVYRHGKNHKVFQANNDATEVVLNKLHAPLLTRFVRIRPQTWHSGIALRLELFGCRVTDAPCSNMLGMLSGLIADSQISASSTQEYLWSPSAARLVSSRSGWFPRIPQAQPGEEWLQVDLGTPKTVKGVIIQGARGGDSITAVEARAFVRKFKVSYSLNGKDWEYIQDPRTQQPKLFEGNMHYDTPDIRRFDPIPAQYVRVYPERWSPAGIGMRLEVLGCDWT
The experiment can be described thus: SPR (Biacore 2000), NRP2-b1b2 immobilised on CM5 chip. The procedure:
as §1

The target of experiment [5] is T1, NRP1-b1b2 (273-586) protein. The experiment can be described thus: ELISA on immobilised NRP1-b1b2, absorbance at 405 nm [A]. The procedure: (§2) 1 μg of each of NRP1-b1b2 (273-586) protein, NRP2-b1b2 (275-595) protein and the control group VEGFR2 (46-753) was immobilized in each well of a 96-well EIA/RIA plate (COSTAR Corning In., USA) at room temperature for 1 hour, and then washed three times with 0.1% PBST (0.1% Tween20, pH 7.4, 137 mM NaCl, 10 mM Phosphate, 2.7 mM KCl, SIGMA-ALDRICH co., USA) for 10 minutes. After binding with 5% skim milk (5% Skim milk, pH 7.4, 137 mM NaCl, 10 mM Phosphate, 2.7 mM KCl, SIGMA-ALDRICH co., USA) for 1 hour, each well was washed three times with 0.1% PBST (0.1% Tween20, pH 7.4, 137 mM NaCl, 10 mM Phosphate, 2.7 mM KCl, SIGMA-ALDRICH co., USA) for 10 minutes. […] Each well was bound with AP-conjugated anti-biotin antibody (alkaline phosphatase-conjugated anti-biotin mAb, Sigma, USA), and then reacted with pNPP ([…], SIGMA-ALDRICH co., USA), and the absorbance at 405 nm was measured.

Experiment [6] has the same target. Kind of experiment: ELISA, biotinylated peptide (100 nM) on coated NRP1-b1b2. The procedure:
as §2

For experiment [7] the target is unchanged. The experiment can be described thus: competitive ELISA on NRP1-b1b2; TPP11 peptide varied, blocked ligand RPARPAR [10 µM], relative binding (%) [B].

Where no end group is shown, it is not given here. Fc = antibody heavy-chain constant region Fc (hinge-CH2-CH3)

T1 sequence (O14786 273-586 limits assumed, form in doubt): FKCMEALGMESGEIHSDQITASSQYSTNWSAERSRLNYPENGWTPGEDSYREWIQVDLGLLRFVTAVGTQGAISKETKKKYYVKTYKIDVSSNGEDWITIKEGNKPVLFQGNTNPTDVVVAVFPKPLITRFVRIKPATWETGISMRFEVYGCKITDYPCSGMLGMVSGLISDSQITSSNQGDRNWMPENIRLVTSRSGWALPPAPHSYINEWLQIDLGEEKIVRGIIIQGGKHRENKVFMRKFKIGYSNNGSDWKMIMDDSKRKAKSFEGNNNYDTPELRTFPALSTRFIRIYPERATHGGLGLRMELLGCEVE

B1: Fc-TPP8 fusion protein (Fc fusion, not shown: a dimerising Fc or GST; small tags and cut ends)
chain: Fc-GGGGSGGGGSGGGGSHTPGIATRTPR
modifications: also: Fc letters not given here, disulfide-linked homodimer through Fc hinge
notes: Expressed in HEK293-F and purified on Protein A; disulfide-linked dimer
For the molecule B1, in experiment [1], the “fold higher affinity for NRP1 than for NRP2” value amounted to 60 fold. Moreover, in experiment [2], the “Binding Affinity Ratio [(KD for NRP2)/KD for NRP1)]” value was found to be 65.8. Besides, the Kd was found to be 3.85 nM in experiment [3] and 254 nM in experiment [4]. Besides, in experiment [5], the “EC50 (read off the curve)” value was around 3 nM.

B2: Fc-TPP1 fusion protein (Fc fusion, not shown: a dimerising Fc or GST; small tags and cut ends)
chain: Fc-GGGGSGGGGSGGGGSHTPGNSNQFVLTSTRPPR
modifications: also: Fc letters not given here, disulfide-linked homodimer through Fc hinge
notes: as for B1
Regarding B2, the “Binding Affinity Ratio [(KD for NRP2)/KD for NRP1)]” value in experiment [2] came to 625. Besides, the dissociation constant (Kd) in experiment [3] turned out to be 1.81 nM; in experiment [4], 1130 nM. In experiment [5], the “EC50 (read off the curve)” value was around 0.5 nM.

B3: synthetic peptide TPP11 not fused to Fc (peptide)
peptide: HTPGNSKPTRTPRR
modifications: also: biotinylated for ELISA, position not given here
notes: also called TPP11 peptide; synthesized TPP11 peptide
As for B3, the “fold lower affinity than Fc-TPP11” value in experiment [6] is 100 fold. In experiment [7], the “IC50 (read off the curve)” value was around 2000 nM.

The values are drawn from patent US20180051064A1 (AJOU UNIVERSITY INDUSTRY ACADEMIC COOPERATION FOUNDATION, published 2018).
